Here are results for one substance from US5405758.

This experiment deals with mite allergen fused protein expressed by pAEX201 in E. coli pop2136 (purified recombinant mite allergen fused protein) (Dermatophagoides farinae). To be noted: scale: times lower concentration at the inflexion point than the crude mite body antigen.

For the substance “blood cells from a mite asthma patient, washed with Hanks' solution (cells without a defined receptor)”, the histamine release, percent ratio of the released histamine (HPLC) was above 200.
